Among the data in patent US20260317430 (published 2026) are EC50 and Kd values, retold here.

Substitutions are numbered along the chain they refer to.

Usually EC50 stands for the concentration needed to bring the measured effect to its halfway point. The term Kd denotes the constant that tells how readily two partners part at equilibrium. The low end stands for higher affinity, the high end for lower affinity.

Sequences and labels used below:
T1: mouse FGFR2b (mouse, UniProt P21803)
T1 chain: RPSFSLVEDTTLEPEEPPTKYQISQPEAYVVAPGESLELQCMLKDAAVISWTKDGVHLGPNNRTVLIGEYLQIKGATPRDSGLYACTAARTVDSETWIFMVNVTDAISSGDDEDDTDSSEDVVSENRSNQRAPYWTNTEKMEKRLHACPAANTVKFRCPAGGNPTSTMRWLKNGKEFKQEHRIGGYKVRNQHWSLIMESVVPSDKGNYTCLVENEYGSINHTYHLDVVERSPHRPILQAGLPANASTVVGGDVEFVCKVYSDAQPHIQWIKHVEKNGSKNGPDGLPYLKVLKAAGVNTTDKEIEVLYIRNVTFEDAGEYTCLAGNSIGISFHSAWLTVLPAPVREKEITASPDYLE

B1: 3A3 (antibody, V domains shown)
VH: QVQLQQSGAELVKPGASVKMSCKASGYTFTTYNIHWVRQTPGQGLEWIGLIYPDNGDTSYNQKFKAKATLTADKSSSTAYMHLSSLTSEDSAVYYCARGGFDYWGQGTTLTVSS
VL: DIVMTQSHKFMSTSVGDRVSITCKASQDVNTDVSWYQQKPGQSPKLLIYSASYRYTGVPTRFTGSGSGTDFTFTISGVQAEDLADYYCQQHYNTPYTFGGGTRLEIK
B2: 3E1 (antibody, V domains shown)
VH: QVQLQQPGAEVVKPGASVKMSCKASGYTFTDYYIHWVKQTPGQGLEWIGAIYPDNGDTSYNQKFKVKATLTADKSSSTAYMQLSSLTSEDSAVYYCARAFTYWGQGTLVTVSA
VL: DILITQSPASLSASVGETVTITCGASENIYGALNWYQRKQGKSPQLLIYGATNLADGMSSRFSGSGSGRQYSLKISSLHPDDVATYYCQNVLSTPYTFGGGTKLEIK
B3: 3C7 (antibody, V domains shown)
VH: EIQLQQSGAELVKPGASVKMSCKASGYIFRNYYIHWVKRTPGQGLEWIGAIYPDNGDTSYNQRFKVKATLTADTSSSTAYMQLSSLTSEDSAVYYCARAFTYWGQGTTLTVSS
VL: B2 VL with L3Q, I4M, T5I
B4: 3D7 (antibody, V domains shown)
VH: QVQLQQSGAELVKPGASVKMSCKASGYTFSFYNMHWVKRTPGRGLEWIGLIYPDNGDTSYNQKFKGKATLTADTSSSTAYMQLSSLTSEDSAVYYCARGGLDYWGQGTSLTVSS
VL: EIVLTQSPASLAVSLGQRATISCKASQSVDYDGDSYMNWYQQKPGQPPKLLIYGISNRFSGVPDRFSGSGSGTDFTLKISTIKPEDLGMYYCLQGTHQPYTFGGGTKLEIK
B5: 3E7 (antibody, V domains shown)
VH: B1 VH with T31I, H82Q
VL: NIVMTQSQKFMSTSVGDRVSVTCKASQNVGTNVAWYQQKPGQSPKALIYSASYRYSGVPDRFTGSGSGTDFTLTISGVQAEDLADYYCQQHYNTPYTFGGGTKLEIK
B6: 3C9 (antibody, V domains shown)
VH: B4 VH with Q1E, V2I, T28I, S30R, F31Y, R43Q, S109T
VL: B2 VL with L3Q, I4M, T5I
B7: 3F11 (antibody, V domains shown)
VH: B1 VH with T30A, T31P, H82Q, T109S
VL: B5 VL with N1D, G77N, A80S, D85E, Y87F, N93S, Y96F, G100S
B8: 3E3 (antibody, V domains shown)
VH: B4 VH with S7P, E10V, K19R, S30P, F31Y, M34V, R43Q, K65T, S109T, S114A
VL: B2 VL with I2V, L3Q
B9: 3F10 (antibody, V domains shown)
VH: B1 VH with Q1E, T30S, T31F, H82Q
VL: B2 VL with I2V, I4M
B10: 3F5 (antibody, V domains shown)
VH: B4 VH with Q1E, V2I, S30R, F31Y, R43Q, S109T
VL: B2 VL with L3V, I4L
B11: 3H6 (antibody, V domains shown)
VH: B1 VH with T30S, T31F, H82Q
VL: DIQMTQSPASLSASVGETVTITCRASENIYSYLAWYQQKQGKSPQLLVYNAKTLAEGVPSRFSGSGSGTQFSLKINSLQPEDFGSYYCQHHYGTPYTFGGGTKLEMK
B12: 3A12 (antibody, V domains shown)
VH: B1 VH with Q1E, T30S, T31F, I34V, T78A, H82Q, T109S
VL: DIVMTQSHKFMSTSVGDRVNITCKASQDVSTAVAWYQQKPGQSPKLLIYSASYRYSGVPDRFTGSGSGTDFTFTISSVQAEDLAVYYCQQHYSTPYTFGGGTKLEMK
B13: 3D6 (antibody, V domains shown)
VH: B4 VH with S30R, F31Y, R43Q
VL: B11 VL with A13V, Y32N, E56D, F71Y, H91F, Y92W, G93S, Y96F, G100S, M106L
B14: 3H9 (antibody, V domains shown)
VH: B4 VH with Q1E, V2I, R43Q, S109T
VL: DIVLTQSPASLSVSVGETVTITCRASENIYSNLAWYQQKQGKSPQLLVYAATNLADGVPSRFSGSGSGTQYSLKINSLQSEDFGSYYCQHFWGTPYTFGGGTKLELK
B15: 1D7 (antibody, V domains shown)
VH: B4 VH with V2I, S30R, F31Y, R43Q
VL: DIQMTQSPSSMSASLGDRITITCQATQDIVKNLNWYQQKPGKPPSFLIYYATELAEGVPSRFSGSGSGSDYSLTISNLESEDFADYYCLQFYEFPLTFGAGTKLELK
B16: 3B7 (antibody, V domains shown)
VH: B4 VH with Q1E, S30R, F31Y, R43Q, L101F, S109T
VL: B2 VL with L3Q, I4M, I106L
B17: 3B4 (antibody, V domains shown)
VH: B4 VH with Q1E, E10D, F31Y, K38R, R43Q, S109T
VL: B2 VL with L3Q, I4M, T5I, L11M, I106M
B18: 3A8 (antibody, V domains shown)
VH: B1 VH with T31I, H82Q, T109S
VL: B5 VL with N1D, G77N, Y87F, N93S, I106M
B19: 2B1 (antibody, V domains shown)
VH: EVQLQQSGAELVKPGASVKMSCKASGYTFASYNLHWVKQTPGQGLEWIGLIYPENGDTSYNQKFKGKATLTADKSSSTAYIQLSSLTSEDSAVYFCARGGFDYWGQGTSLTVSS
VL: B11 VL with T5I, A13V, Y32N, E56D, F71Y, H91F, Y92W, G93S, M106I
B20: 1B8 (antibody, V domains shown)
VH: B19 VH with E1Q, V2I, K74T, S77T
VL: B2 VL with L3K, I4M

human FGFR2b on KATO III cells, sequence (P21802 22-377): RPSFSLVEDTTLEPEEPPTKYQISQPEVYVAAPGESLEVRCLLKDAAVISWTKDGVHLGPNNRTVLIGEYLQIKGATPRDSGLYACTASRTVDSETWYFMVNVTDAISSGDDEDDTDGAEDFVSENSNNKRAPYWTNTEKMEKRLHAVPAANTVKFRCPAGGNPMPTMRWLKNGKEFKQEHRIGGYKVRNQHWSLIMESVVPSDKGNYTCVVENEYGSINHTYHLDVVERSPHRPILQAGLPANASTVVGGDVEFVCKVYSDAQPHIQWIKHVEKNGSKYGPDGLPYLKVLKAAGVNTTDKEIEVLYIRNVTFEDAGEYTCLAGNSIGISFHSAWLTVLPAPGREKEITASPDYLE

The first experiment addresses human FGFR2b on KATO III cells (human, UniProt P21802). Briefly: FACS. A general note: Flow cytometry measures light scatter and fluorescence of single cells or particles in a stream.
B1: a half-maximal effect (EC50) was put at 0.236 µg/mL.
Still for that read-out and setting: the result for B2 reads 0.132 µg/mL; that for B3, 0.2 µg/mL; that for B4, 0.259 µg/mL.
The same measure, in the same setting: the result for B5 reads 0.298 µg/mL; that for B6, 0.253 µg/mL; that for B7, 0.164 µg/mL.
Molecule B8 yielded an EC50 of 0.376 µg/mL.
B9 displayed an EC50 of 0.159 µg/mL.
Still for that read-out and setting: the result for B10 reads 0.105 µg/mL; that for B11, 0.226 µg/mL; that for B12, 0.292 µg/mL.
The molecule B13 displayed an EC50 of 0.136 µg/mL.
Molecule B14 returned a concentration for a half-maximal effect (EC50) of 0.161 µg/mL.
The molecule B15 had an EC50 of 0.167 µg/mL.
For B16, the EC50 worked out at 0.117 µg/mL.
B17 displayed an EC50 of 0.168 µg/mL.
With B18, the EC50 amounted to 0.199 µg/mL.
On to B19, for which a half-maximal response (EC50) required 0.195 µg/mL.
The same measure, in the same setting: the result for B20 reads 0.133 µg/mL.

The target in the next experiment is T2, human FGFR2b extracellular domain (human, UniProt P21802). Briefly: BLI.
T2 sequence (P21802 22-377): as above
In turn, B1 had a Kd of 3.71 nM.
Consider B2, for which binding was put at a Kd of 4.5 nM.
The same measure, in the same setting: under B3 stands 3.99 nM; under B4, 8.58 nM.
Regarding B5, the equilibrium dissociation constant (Kd) was 4.35 nM.
Consider B6, for which the Kd was 2.7 nM.
In the case of B7, the Kd came to 6.13 nM.
The molecule B8 had a dissociation constant Kd of 8.18 nM.
B9 came in with a dissociation constant Kd of 7.62 nM.
Still for that read-out and setting: under B10 stands 5.1 nM; under B11, 8.41 nM; under B12, 2.82 nM.
In turn, B13 yielded a Kd of 15 nM.
Regarding B14, the Kd was 5.69 nM.
With B15, the dissociation constant Kd stood at 4.51 nM.
Regarding B16, binding was put at a Kd of 7.6 nM.
On the same count and under the same terms, under B17 stands 6.28 nM; under B18, 3.48 nM.
In turn, B19 displayed a Kd of 6.67 nM.
On the same count and under the same terms, under B20 stands 13.3 nM.

The target in the next experiment is T1, mouse FGFR2b. Briefly: BLI. Background: BLI is a label-free optical method that tracks binding on a fibre tip over time.
Regarding B1, binding was put at a Kd of 39.6 nM.
The same measure, in the same setting: under B2 stands 21.8 nM.
As for B3, the Kd stood at 8.71 nM.
As to B4, the Kd stood at 81.7 nM.
The molecule B5 registered a Kd of 40.9 nM.
Turning to B6, the Kd amounted to 9.95 nM.
Consider B7, for which the affinity, expressed as Kd, was 26 nM.
B8 had a Kd of 52.7 nM.
As to B9, binding was characterised by a dissociation constant (Kd) of 52.5 nM.
Still for that read-out and setting: under B10 stands 36.1 nM; under B11, 43.7 nM; under B12, 10.7 nM.
In turn, B13 showed a Kd of 21.7 nM.
In turn, B14 came in with a Kd of 23.8 nM.
The molecule B15 showed a Kd of 27.6 nM.
In the case of B16, the Kd was 33.9 nM.
Molecule B17 had a dissociation constant Kd of 27.3 nM.
As to B18, the Kd is 7.17 nM.
Consider B19, for which binding was characterised by a dissociation constant (Kd) of 23 nM.
B20 registered a dissociation constant (Kd) of 74.9 nM.

A further experiment has as its target T2, human FGFR2b extracellular domain. Briefly: ELISA. On the technique in general: ELISA stands for enzyme-linked immunosorbent assay.
In turn, B1 yielded a concentration for a half-maximal effect (EC50) of 0.0216 µg/mL.
With B2, the EC50 stood at 0.0156 µg/mL.
In the case of B3, the EC50 was 0.0166 µg/mL.
Consider B4, for which the half-maximal effective concentration (EC50) is 0.0369 µg/mL.
As for B5, the EC50 is 0.0154 µg/mL.
Consider B6, for which the EC50 came out at 0.0147 µg/mL.
In turn, B7 yielded a concentration for a half-maximal effect (EC50) of 0.0156 µg/mL.
B8 yielded an EC50 of 0.0273 µg/mL.
In the case of B9, a half-maximal effect (EC50) was put at 0.00818 µg/mL.
On the same count and under the same terms, under B10 stands 0.0159 µg/mL; under B11, 0.0128 µg/mL.
In turn, B12 showed an EC50 of 0.0128 µg/mL.
Take B13: the 50% effective concentration (EC50) turned out to be 0.0369 µg/mL.
B14 registered an EC50 of 0.0278 µg/mL.
In the case of B15, the EC50 was determined as 0.0154 µg/mL.
Same read-out and setting: under B16 stands 0.0147 µg/mL.
B17 showed an EC50 of 0.0166 µg/mL.
On to B18, for which the midpoint of the response, the EC50, lay at 0.0278 µg/mL.
As to B19, the EC50 worked out at 0.0276 µg/mL.
In turn, B20 gave an EC50 of 0.0273 µg/mL.
